Measured values from the supplement of paper PMC7877785.
± gives the uncertainty stated by the source.

Experiment: self-splicing fitness, log relative to wild type (ln ratio); higher = more splicing; Tetrahymena group I intron in knt gene, E. coli kanamycin selection, DiMSum; sequences stand for … in CUCUCU…GGAGGGAAAAGUUAUCAGGCAUGCACCUGGUAGCUAGUCUUUAAACCAAUAGAUUGCAUCGGUUUAAAAGGCAAGACCGUCAAAUUGCGGGAAAGGGGUCAACAGCCGUUCAGUACCAAGUCUCAGGGGAAACUUUGAGAUGGCCUUGCAAAGGGUAUGGUAAUAAGCUGACGGACAUGGUCCUAACCACGCAGCCAAGUCCUAAGUCAACAGAUCUUCUGUUGAUAUGGAUGCAGUUCACAGACUAAAUGUCGGUCGGGGAAGAUGUAUUCUUCUCAUAAGAUAUAGUCGGACCUCUCCUUAAUGGGAGCUAGCGGAUGAAGUGAUGCAACACUGGAGCCGCUGGGAACUAAUUUGUAUGCGAAAGUAUAUUGAUUAGUUUUGGAGUACUCGUGGUCG
Summary of the method: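 DiMSum derived fitness as the error-weighted combination of fold changes across replicates, kanamycin versus no kanamycin, normalised to wild type. E. coli BL21(DE3) held the library, which randomised all eight P1ex-region intron nucleotides within the knt kanamycin-resistance gene on pET-22b(+). Six replicate transformations grew overnight at 37°C or 30°C on LB agar with or without 25 μg/mL kanamycin, also containing 100 μg/mL carbenicillin, 50 μM IPTG and 0.2% rhamnose, and pooled colonies were amplicon-sequenced on an Illumina HiSeq 2500.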

Row | Sequence | self-splicing fitness (ln) (30 °C) | self-splicing fitness (ln) (37 °C)
1 | CACAAGCAAUAUUACGGAAG | -0.736 ± 0.055 | -0.887 ± 0.072
2 | AUACAGCAAUAUUACGUGUA | -2.3 ± 0.093 | -1.32 ± 0.095
3 | CCUAAGCAAUAUUACGGUGC | -2.79 ± 0.28 | -2.19 ± 0.32
4 | CUACAGCAAUAUUACGAUGA | -3.02 ± 0.19 | -2.13 ± 0.14
5 | GGACAGCAAUAUUACGCCUU | -0.676 ± 0.057 | -0.194 ± 0.069
6 | UCGGAGCAAUAUUACGUCCU | -1.79 ± 0.17 | -0.83 ± 0.25
7 | CUUCAGCAAUAUUACGCAGU | -3.96 ± 0.43 | -2.9 ± 0.33
8 | GUGCAGCAAUAUUACGGCGC | -2.72 ± 0.17 | -2.41 ± 0.32
9 | CGUCAGCAAUAUUACGGUGC | -2.31 ± 0.11 | -3.54 ± 0.31
10 | GAUAAGCAAUAUUACGACUA | -0.184 ± 0.086 | -0.149 ± 0.1
11 | CUGAAGCAAUAUUACGCUCA | -3.73 ± 0.37 | -0.356 ± 0.22
12 | AUACAGCAAUAUUACGGCGA | -1.08 ± 0.096 | -0.781 ± 0.11
13 | CCCAAGCAAUAUUACGCCGU | -3.66 ± 0.22 | -2.21 ± 0.19
14 | UACAAGCAAUAUUACGUCGA | -1.78 ± 0.08 | -0.266 ± 0.082
15 | UGACAGCAAUAUUACGAUUC | -3.35 ± 0.17 | -2.09 ± 0.14
16 | ACCUAGCAAUAUUACGAUGC | -1.22 ± 0.078 | -0.172 ± 0.081
17 | GGACAGCAAUAUUACGCCCA | -0.886 ± 0.45 | -0.212 ± 0.36
18 | GACGAGCAAUAUUACGUCAA | -3.11 ± 0.27 | 
19 | AGCCAGCAAUAUUACGAUUA | -2.22 ± 0.27 | -2.48 ± 0.28
20 | GGCAAGCAAUAUUACGGUAG | -2.27 ± 0.11 | -2.2 ± 0.11
21 | GCGUAGCAAUAUUACGCAUC | -3.37 ± 0.5 | -1 ± 0.4
22 | AUACAGCAAUAUUACGGCCC | -1.15 ± 0.19 | -0.184 ± 0.28
23 | UUCUAGCAAUAUUACGGCGC | -2.84 ± 0.25 | -2.7 ± 0.24
24 | UCCUAGCAAUAUUACGUACA | -2.45 ± 0.27 | -0.735 ± 0.16

Row | Sequence | self-splicing fitness (ln) (30 °C) | self-splicing fitness (ln) (37 °C)
25 | ACCCAGCAAUAUUACGGAAU | -0.884 ± 0.054 | -0.0542 ± 0.07
26 | CGCUAGCAAUAUUACGACUC | -1.4 ± 0.1 | -1.61 ± 0.15
27 | AGGCAGCAAUAUUACGCCUC | -3.08 ± 0.33 | 
28 | AGACAGCAAUAUUACGGUGA | -1.49 ± 0.074 | -0.921 ± 0.095
29 | AAAAAGCAAUAUUACGGACC | -0.351 ± 0.092 | -0.225 ± 0.11
30 | CGCCAGCAAUAUUACGAUUC | -4.81 ± 0.46 | -3.22 ± 0.35
31 | UCACAGCAAUAUUACGAAAC | -3.36 ± 0.37 | -2.7 ± 0.25
32 | ACACAGCAAUAUUACGGCUC | -0.896 ± 0.067 | -0.461 ± 0.088
33 | UAUAAGCAAUAUUACGGUUU | -2.58 ± 0.11 | -1.24 ± 0.099
34 | GGCCAGCAAUAUUACGGCCA | -2.42 ± 0.16 | -1.03 ± 0.17
35 | GAAAAGCAAUAUUACGCCGG | -1.34 ± 0.18 | -1.2 ± 0.17
36 | GUAAAGCAAUAUUACGCCAU | -1.89 ± 0.1 | -0.44 ± 0.12
37 | UGACAGCAAUAUUACGUUCC | -1.55 ± 0.1 | -0.947 ± 0.14
38 | ACACAGCAAUAUUACGCAAC | -5.33 ± 0.36 | -1.88 ± 0.17
39 | ACCCAGCAAUAUUACGUUUA | -1.57 ± 0.066 | -1.01 ± 0.072
40 | UCUUAGCAAUAUUACGGGCU | -4.8 ± 0.46 | -2.26 ± 0.28
41 | GGAUAGCAAUAUUACGAAUU | -2.56 ± 0.21 | -1.57 ± 0.19
42 | ACUCAGCAAUAUUACGUUGC | -3.43 ± 0.16 | -3.57 ± 0.26
43 | CCUAAGCAAUAUUACGUGAC | -4.32 ± 0.3 | 
44 | UUUCAGCAAUAUUACGAGGU | -3.53 ± 0.2 | -2.78 ± 0.24
45 | AUGUAGCAAUAUUACGAGAU | -2.04 ± 0.14 | -0.409 ± 0.13
46 | GGUCAGCAAUAUUACGACUC | -3.25 ± 0.24 | -1.61 ± 0.32
47 | CUAAAGCAAUAUUACGGCCU | -3.01 ± 0.15 | -2.5 ± 0.28
48 | UCUGAGCAAUAUUACGGUGA | -0.612 ± 0.11 | -0.1 ± 0.13
